Test results reported in patent publication US20260242478A1 (published 2026).
Where no end group is shown, it is not given here.

B1: Phage-1283 (peptide)
peptide: YCAGHLPQYVSKCL
modifications: cysteine pairing not given here; also: fused to phage pIII protein, pIII and linker sequence not given here
notes: Peptide-87 library clone on clonal phage (crude supernatant); not shown: fused to the pIII filament protein of the bacteriophage
B2: Phage-1286 (peptide)
peptide: YCDGHLPRFMVKCL
modifications: cysteine pairing not given here; also: fused to phage pIII protein, pIII and linker sequence not given here
notes: as for B1
B3: Phage-1284 (peptide)
peptide: YCEGHLPWYMSKCL
modifications: cysteine pairing not given here; also: fused to phage pIII protein, pIII and linker sequence not given here
notes: as for B1
B4: Phage-1282 (peptide)
peptide: YCQGHALQYLQKCL
modifications: cysteine pairing not given here; also: fused to phage pIII protein, pIII and linker sequence not given here
notes: as for B1
B5: Phage-1285 (peptide)
peptide: YCDGHHLEYIDKCL
modifications: cysteine pairing not given here; also: fused to phage pIII protein, pIII and linker sequence not given here
notes: as for B1

Columns and labels:
[1] = target: Anti-CD28 Fab (SEQ ID NOs: 696, 697); assay: phage binding ELISA; Fab-coated wells pre-incubated with CD28 antigen as competitor, anti-M13 HRP detection;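 note: crude clonal phage supernatants added without washing after the CD28 pre-incubation, with wells given blocking buffer only (no CD28) as the reference, bound phage read after washing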
Target sequence in this assay (VH, as listed by the source, chain 1 of 2): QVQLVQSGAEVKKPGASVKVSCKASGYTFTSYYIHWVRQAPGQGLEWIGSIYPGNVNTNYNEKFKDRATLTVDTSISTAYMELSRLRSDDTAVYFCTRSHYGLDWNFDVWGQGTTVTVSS
Target sequence in this assay (VL, as listed by the source, chain 2 of 2): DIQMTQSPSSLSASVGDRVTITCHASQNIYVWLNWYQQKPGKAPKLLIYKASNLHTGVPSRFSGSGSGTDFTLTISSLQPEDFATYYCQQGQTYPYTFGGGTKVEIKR
Protocol: (§1) Clonal phage were harvested as crude supematants and screened via standard ELISAs. […] Prior to the addition of clonal phage, wells were incubated with blocking buffer and CD28 antigen or blocking buffer alone. Without washing or aspirating, clonal phage supematants were then added to the wells and incubated for a short time. Wells were then washed followed by detection of bound phage using a horse radish conjugated anti-M13 antibody. Clonal phage of interest were then sent for sequence analysis.

[2] = target: Anti-CD28 Fab (SEQ ID NOs: 696, 697); assay: phage binding ELISA; biotinylated anti-CD28 Fab on neutravidin plate, clonal phage supernatant, anti-M13 HRP detection;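 note: wells pretreated with blocking buffer, either plus or minus CD28 antigen, then given crude phage supernatant briefly without washing in between, then washed before anti-M13 HRP readout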
Target sequence in this assay (VH, as listed by the source, chain 1 of 2): as the sequence (VH, as listed by the source, chain 1 of 2) above
Target sequence in this assay (VL, as listed by the source, chain 2 of 2): as the sequence (VL, as listed by the source, chain 2 of 2) above
Protocol: (§2) Clonal phage were harvested as crude supematants and screened via standard ELISAs. […] Prior to the addition of clonal phage, wells were incubated with blocking buffer and CD28 antigen or blocking buffer alone. Without washing or aspirating, clonal phage supematants were then added to the wells and incubated for a short time. Wells were then washed followed by detection of bound phage using a horse radish conjugated anti-M13 antibody.

[3] = target: T1, Anti-CD28 Fab (SEQ ID NOs: 696, 697); assay: phage ELISA; biotinylated Fab on neutravidin plate, clonal phage supernatant, anti-M13 HRP detection
T1 construct: Used biotinylated and captured on neutravidin coated plates in the phage ELISA
T1 sequence (VH, as listed by the source, chain 1 of 2): as the sequence (VH, as listed by the source, chain 1 of 2) above
T1 sequence (VL, as listed by the source, chain 2 of 2): as the sequence (VL, as listed by the source, chain 2 of 2) above
Protocol: (§3) After panning, phage infected bacteria were plated out and colonies picked into 96 well blocks. Clonal phage was then amplified and separated from bacterial cells via centrifugation.
as §1

[4] = target: T1, Anti-CD28 Fab (SEQ ID NOs: 696, 697); assay: phage ELISA; Fab on plate pre-incubated with CD28 antigen as competitor, anti-M13 HRP detection
Protocol: as §3, §1

[5] = target: T2, Anti-CD28 Fab (SEQ ID NOs: 696, 697) (biotinylated (site not given)); assay: phage binding ELISA on captured anti-CD28 Fab; competitor: CD28 antigen added to the wells before the phage
T2 sequence (VH, as listed by the source, chain 1 of 2): as the sequence (VH, as listed by the source, chain 1 of 2) above
T2 sequence (VL, as listed by the source, chain 2 of 2): as the sequence (VL, as listed by the source, chain 2 of 2) above

[6] = target: T2, Anti-CD28 Fab (SEQ ID NOs: 696, 697); assay: phage binding ELISA; biotinylated anti-CD28 Fab on neutravidin plate, clonal phage detected with anti-M13-HRP;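 note: crude clonal phage supernatants added briefly to wells preincubated in blocking buffer with or without CD28 antigen, then washed before detection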
Protocol: as §1

[7] = target: T3, Anti-CD28 Fab (SEQ ID NOs: 696, 697); assay: phage binding ELISA; clonal phage on plate-captured anti-CD28 Fab pre-incubated with CD28 antigen (competitor)
T3 construct: In the phage ELISA the Fab was biotinylated and captured on neutravidin coated plates
T3 sequence (VH, as listed by the source, chain 1 of 2): as the sequence (VH, as listed by the source, chain 1 of 2) above
T3 sequence (VL, as listed by the source, chain 2 of 2): as the sequence (VL, as listed by the source, chain 2 of 2) above
Protocol: as §1

[8] = target: T3, Anti-CD28 Fab (SEQ ID NOs: 696, 697); assay: phage binding ELISA; clonal phage on plate-captured biotinylated anti-CD28 Fab
Protocol: as §2

Binder | Anti-CD28 Fab signal in the presence of CD28 [1] | Anti-CD28 Fab (SEQ ID NOs: 696, 697) signal [2] | Anti-CD28 Fab signal in the presence of CD28 [5] | Anti-CD28 Fab (SEQ ID NOs: 696, 697) signal [6] | further results
LCAAGATYPWPFCL [Phage-1366 peptide (Peptide-92 library sequence, SEQ ID NO: 1662)] | 0.07 | 2.28 |  |  | 
B1 |  |  |  |  | Phage binding ELISA, Anti-CD28 Fab (SEQ ID NOs: 696, 697) signal [3]: 0.7; Phage binding ELISA, Anti-CD28 Fab signal in the presence of CD28 [4]: 0.06
TCSEGATYTWPWCF [Phage-1401] |  |  | 0.06 | 2.05 | 
TCSAGAYYTWPYCF [Phage-1395] |  |  | 0.08 | 2.09 | 
TCAAGATYEWPACL [Phage-1394] |  |  | 0.07 | 2.09 | 
GCAAGATYPWPSCL [Phage-1404 (Peptide-92 library clone)] |  |  |  |  | Anti-CD28 Fab signal in the presence of CD28 [7]: 0.06; Anti-CD28 Fab (SEQ ID NOs: 696, 697) signal [8]: 2.05
TCSAGATYAWPFCL [Phage-1360 peptide (Peptide-92 library sequence, SEQ ID NO: 1656)] | 0.06 | 2.31 |  |  | 
MCSAGAMYSWPLCL [Phage-1365 peptide (Peptide-92 library sequence, SEQ ID NO: 1661)] | 0.08 | 2.29 |  |  | 
TCSAGATYVWPQCF [Phage-1403 (Peptide-92 library clone)] |  |  |  |  | Anti-CD28 Fab signal in the presence of CD28 [7]: 0.07; Anti-CD28 Fab (SEQ ID NOs: 696, 697) signal [8]: 2.05
LCAAGATYAWPLCL [Phage-1392] |  |  | 0.07 | 2.13 | 
B2 |  |  |  |  | Phage binding ELISA, Anti-CD28 Fab (SEQ ID NOs: 696, 697) signal [3]: 0.69; Phage binding ELISA, Anti-CD28 Fab signal in the presence of CD28 [4]: 0.07
LCSAGAMYPWPTCL [Phage-1369 peptide (Peptide-92 library sequence, SEQ ID NO: 1665)] | 0.07 | 2.25 |  |  | 
WCKPGAPYKWPPCF [Phage-1389] |  |  | 0.07 | 2.14 | 
TCAAGAMYTWPLCF [Phage-1390] |  |  | 0.09 | 2.14 | 
RCAAGASYPWPPCL [Phage-1372 peptide (Peptide-92 library sequence, SEQ ID NO: 1668)] | 0.05 | 2.25 |  |  | 
SCSAGAMYTWPTCL [Phage-1397] |  |  | 0.06 | 2.09 | 
TCAAGATYPWPSCL [Phage-1371 peptide (Peptide-92 library sequence, SEQ ID NO: 1667)] | 0.06 | 2.25 |  |  | 
B3 |  |  |  |  | Phage binding ELISA, Anti-CD28 Fab (SEQ ID NOs: 696, 697) signal [3]: 0.69; Phage binding ELISA, Anti-CD28 Fab signal in the presence of CD28 [4]: 0.09

Binder | Anti-CD28 Fab signal in the presence of CD28 [1] | Anti-CD28 Fab (SEQ ID NOs: 696, 697) signal [2] | Anti-CD28 Fab signal in the presence of CD28 [5] | Anti-CD28 Fab (SEQ ID NOs: 696, 697) signal [6] | further results
TCAAGAHYLWPWCM [Phage-1402] |  |  | 0.08 | 2.05 | 
TCAAGATYAWPECL [Phage-1400] |  |  | 0.11 | 2.08 | 
SCKPGVANYWPWCL [Phage-1364 peptide (Peptide-92 library sequence, SEQ ID NO: 1660)] | 0.1 | 2.29 |  |  | 
SCAAGAMWPWPVCV [Phage-1362 peptide (Peptide-92 library sequence, SEQ ID NO: 1658)] | 0.13 | 2.29 |  |  | 
MCAAGANYPWPQCL (cysteine pairing not given here; also: fused to phage pIII protein) [Phage-1367 peptide (Peptide-92 library sequence, SEQ ID NO: 1663)] | 0.08 | 2.28 |  |  | 
QCAAGASYPWPMCL [Phage-1398] |  |  | 0.08 | 2.08 | 
YCAAGATYPWPLCL [Phage-1399] |  |  | 0.08 | 2.08 | 
B4 |  |  |  |  | Phage binding ELISA, Anti-CD28 Fab (SEQ ID NOs: 696, 697) signal [3]: 0.71; Phage binding ELISA, Anti-CD28 Fab signal in the presence of CD28 [4]: 0.08
TCSAGATWTWPQCL [Phage-1391] |  |  | 0.08 | 2.14 | 
MCAEFFNYPWPLCL (cysteine pairing not given here; also: fused to phage pIII protein) [Phage-1393] |  |  | 0.07 | 2.11 | 
TCSAGASYPWPLCL [Phage-1363 peptide (Peptide-92 library sequence, SEQ ID NO: 1659)] | 0.08 | 2.29 |  |  | 
MCAAGATYPWPACL (cysteine pairing not given here; also: fused to phage pIII protein) [Phage-1361 peptide (Peptide-92 library sequence, SEQ ID NO: 1657)] | 0.06 | 2.3 |  |  | 
TCAAGAHYSWPACF [Phage-1370 peptide (Peptide-92 library sequence, SEQ ID NO: 1666)] | 0.07 | 2.25 |  |  | 
TCSAGATWSWPMCL [Phage-1368 peptide (Peptide-92 library sequence, SEQ ID NO: 1664)] | 0.09 | 2.26 |  |  | 
B5 |  |  |  |  | Phage binding ELISA, Anti-CD28 Fab (SEQ ID NOs: 696, 697) signal [3]: 0.69; Phage binding ELISA, Anti-CD28 Fab signal in the presence of CD28 [4]: 0.06
TCKAGATYLWPFCL [Phage-1373 peptide (Peptide-92 library sequence, SEQ ID NO: 1669)] | 0.08 | 2.23 |  |  | 
TCAAVFSYGWPECF [Phage-1396] |  |  | 0.07 | 2.09 | 
